Results reported in the RNAGym collection of RNA variant scans (doi:10.1073/pnas.2313332121).

B1: TPR t1 (parent)
chain: GACCAAUCUGCCCUCAGAGCUCGAGAACAUCUUCGGAUGCAGAGGAGGCAGGCUUCGGUGGCGCGAUAGCGCCAACGUCCUCAACCUCCAAUGCAUCCCACCACAUGAUGAUGCCUGAAGAGCCUUGGUUUUUUG

Variants of: B1
Test: polymerase ribozyme fitness, log enrichment relative to wild type (log ratio); higher = more active; in vitro selection for triplet polymerase activity
In short: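 Both subunits of a heterodimeric triplet polymerase ribozyme were given their own mutant library, built by PCR and transcribed. Each library was annealed with a biotinylated primer, the partner subunit and triplets, incubated frozen at −7 °C, and its extended constructs gel-excised, captured on streptavidin beads and amplified by RT-PCR, all in one round done in triplicate. Fitness is the logarithm of genotype enrichment relative to wild-type enrichment, with replicates averaged by inverse-variance weighting. That logarithm is base 2, and Illumina-sequenced genotypes needed ≥10 input reads and ≥1 read per output.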

Point of comparison: GACCAAUCUGCCCUCAGAGCUCGAGAACAUCUUCGGAUGCAGAGGAGACAGGCUUCGGUGGCGCGUUAGCGCCAACGGCCUCAACCUCCAAUGCAUCCCACCACAUGAUGAUGCCUGAAGAGCCUUGGUUUUUUG [G48A A66U U78G], “polymerase ribozyme fitness (log ratio)” value -1.56. Against it:
- GACCAAUCUGCCCUCAGAGCUCGAGAACAUCUUCGGAUGCAGAGGAGACAGGCUUCGGUGGCGCGAUAGUGCCAACGUCCUCAACCUCCAAUGCAUCCCACCACAUGAUGAUGCAUGAAGAGCCUUGGUUUUUUG [G48A C70U C115A] — lower, -1.87
- GACCAAUCUGCCCUCAGAGCUCGAGAACAUCUUCGGAUGCAGAGGAGAGAGGCUUUGGUGGCGCGAUAGCGCCAACGUCCUCAACCUCCAAUGCAUCCCACCACAUGAUGAUGCCUGAAGAGCCUUGGUUUUUUG [G48A C49G C56U] — higher, -0.3
- GACCAAUCUGCCCUCAGAGCUCGAGAACAUCUUCGGAUGCAGAGGAUGCAGGCUUCGGUGGCGCGAUAGCGCCAACGUCCUCAACCUCCAAUGCAUCCCACCACAUGAUGAUGCCUGAAAAGCCUUGGUUUUUUG [G47U G120A] — higher, -0.734
- GACCAAUCUGCCCUCAGAGCUCGAGAACAUCUUCGGAUGCAGAGGAGACAGGCUUCGGUGGAGCGAUAGCGCCAACGUCCUAAAGCUCCAAUGCAUCCCACCACAUGAUCAUGCCUGAAGAGCCUUGGUUUUAUG [G48A C62A C82A C85G G110C U133A] — lower, -7.12
- GACCAAUCUGCCCUCAGAGCUCGAGAACAUCUUCGGAUGCAGAGGAGACAGGUUUCGGUGGCUCGAUAGCGCCAACGUCCUCAACCUCCAAUGCAUCCCACCACAUGAUAAUGCCUGAAGAGCCUUGGUUUUUUG [G48A C53U G63U G110A] — lower, -3.27
- GACCAAUCUGCCCUCAGAGCUCGAGAACAUCUUCGGAUGCAGAGGAUGCAGGCUUCGGUGGCGCGAUAGCGCCAACGUCCUCAACCACCAAUGCAUCCCACCACAUGAUGAUGCCUGAAGAGCCUUGGUUUUUUG [G47U U87A] — lower, -2.55
- GACCAAUCUGCCCUCAGAGCUCGAGAACAUCUUCGGAUGCAGAGGAUGCAGGCUUCGGUGGCGCGAUAGCGCCAACGGCCUCAACCUCCAAUGCAUCCCACCACAUGAUGAUGCCUGAAGAGCCUUGGUUUUUUG [G47U U78G] — within 0.2 log units, -1.6
- GACCAAUCUGCCCUCAGAGCUCGAGAACAUCUUCGGAUGCAGAGGAUGCAGGCUUCGGUGGCGCGAUAGCGCCAACGUCCACAACCUCCAAUGCAUCCCACCACAUGAUGAUGCCUGAAGAUUCUUGGUCAUUUG [G47U U81A G122U C123U U130C U131A] — lower, -2.99
- GACCAAUCUGCCCUCAGAGCUCGAGAACAUCUUCGGAUGCAGAGGAGACAGGCUUCGGUGGCGCGAUAGCGCCAACGUCCUCAACCUCCAAUGCAUCCCACCACAUGAUGAUGCCUGAAGAGCCUUGGUUUUUUG [G48A] — higher, -0.658
- GACCAAUCUGCCCUCAGAGCUCGAGAACAUCUUCGGAUGCAGAGGAGACAGGCUUCGGUGGCGCGAUAGCGGCAACGUCCUCAACCUCCAAUGCAUCCCACCUCAUGAUGAUGCCUGAGGAGCCUUGGUUUUUUG [G48A C72G A103U A119G] — lower, -3.79
- GACCAAUCUGCCCUCAGAGCUCGAGAACAUCUUCGGAUGCAGAGGAGACAGGCUUCGGUGGCGCGAUAGAGCCAACGUCCUCAACCUCCAAUGCAUCCCACCACAUGAUGAUGCCUGAAUAGCCUUGAUUUUUUA [G48A C70A G120U G128A G135A] — lower, -2.26
- GACCAAUCUGCCCUCAGAGCUCGAGAACAUCUUCGGAUGCAGAGGAGACAGGCUUCGGUGGCGUGAUAGCGCAAACGUCCUCAACCUCCAAUGCAUCCCACCACAUGAUGAUGCCUGAAGAGCCUUGGUUUUUUG [G48A C64U C73A] — higher, -0.705
- GACCAAUCUGCCCUCAGAGCUCGAGAACAUCUUCGGAUGCAGAGGAGACAGGAUUCGGGGCCGCGAUAGCGCCAACGUUCUCAACCUCCAAUGCAUCCCAACACAUGAUGAUGCCUGAAGAGCCUAGGUUUUUUG [G48A C53A U59G G61C C79U C101A U126A] — lower, -3.84
- GACCAAUCUGCCCUCAGAGCUCGAGAACAUCUUCGGAUGCAGAGGAGACAGGCUUUGGUGGCGCGAUAGAGCCAACGUCCUCAACCUCCAAUGCAUCCCACCACAUGAUGAUGCCUGAAGAGCCUUGGUUUUUUG [G48A C56U C70A] — lower, -4.74
- GACCAAUCUGCCCUCAGAGCUCGAGAACAUCUUCGGAUGCAGAGGAGACAGGAUUCGGGGCCGCGAUAGCGCCAACGUCCUCAACCUCCAAUGCAUCCCACCACAUGAUGAUGCCUGAAGAGCCUUGGUUUUUUG [G48A C53A U59G G61C] — higher, -0.194
- GACCAAUCUGCCCUCAGAGCUCGAGAACAUCUUCGGAUGCAGAGGAGACAGGCUUCGGUGGCGCGAUAGUGCCAACGUCCUCAACCUCCAAUGCAUCCCACCACAUGAUGAUGCCUGAAGAGCCUUGGUUUUUUG [G48A C70U] — higher, -1.3
- GACCAAUCUGCCCUCAGAGCUCGAGAACAUCUUCGGAUGCAGAGGAUGCAGGCUUCGGUGGCGCGAUAGCGCCAACGUCCUCAACCUCCAAGGCAUCCCACCACAUGAUGAUGCCUCAAGAGCCUUGGUUUUUUG [G47U U92G G117C] — lower, -7.27
- GACCAAUCUGCCCUCAGAGCUCGAGAACAUCUUCGGAUGCAGAGGAUGCAGGCUUCGGUGGCGCGAUAGCGCCAACGUCCUCAACCUCCAAUGCAACCCACCACAUGAUGAUGCCUGAAGAGCCUUGGUUUUUUG [G47U U96A] — lower, -2.1
- GACCAAUCUGCCCUCAGAGCUCGAGAACAUCUUCGGAUGCAGAGGAUGCAGGCUUCGGUGGCGCGAUAGCGCCAACGGCCUCAACCUCCAAUGCAUCCCACCACAUGAUGAUGCCUGAAGAGCCUUGGUUUUUUA [G47U U78G G135A] — lower, -1.83
- GACCAAUCUGCCCUCAGAGCUCGAGAACAUCUUCGGAUGCAGAGGAGACAGGCUUCGGUGGAGCGAUAGCGCUAACGUCCUCAACCUCCAAUGCAUCCCACCACAUGAUGAUGCCUGAAGAGCCUUGGUUUUUUG [G48A C62A C73U] — lower, -3.55
